B1: SSAP_276: SEQ ID NO: 445; Oceanobacillus sp. Castelsardo (protein, listed as Oceanobacillus sp.)
chain: ATNSTLKNQISNKKQGNNQVGKTQGTTMKQLLASPAVMNRFEEVLGKRANQFTASILGLYNSEKMLQKAEPMSVISSAMIAATLDLPVDKNLGYAWIVPYGGKAQFQMGYKGYIQLALRTGQYRNINVIEVYEGELKKWDRLTEEIELDFESRTSDKVIGYTGYFELINGFRKTVYWSKEDVEKHKKRFSKSDFGWKNDWDAMARKTVIRNMLNKWGILSIDMQKGMVEDSKDPVEVNEEFSSDVIDADYEVVGENEQQDFTVEENA
B2: SSAP_295: SEQ ID NO: 464; Pseudoalteromonas (multispecies) (protein, listed as Pseudoalteromonas sp.)
chain: SLSLQEYQNLLYGKLTACKGQFDACLSENGYKLDFNTELNYVYQIVMSGLNVEYSFPYTPVESVITSFLKAAKIGLSLCPTEQLCFLKTEYSESSGQYVTQLGLGYKGILKLAYRSGKVKQINANVFYEKDNFQYNGVNSKVTHTTTVLSKAMRGQLAGGYCQTELIDGSFKTTVMPPEEILAIEEQGKAMGNEAWLSVHVDQMREKTLIKRHWKTLCPCIYRDSVMNDPMLFDDQDCQHSSNQQAYEEQFESAYSREAY
B3: SSAP_135: SEQ ID NO: 304; Amycolatopsis arida (protein, listed as Amycolatopsis arida)
chain: HGTALNPERFTRVALTVIRQSADLQRCRPESLLGALMTSAQLGLEPGPLGEAYLVPYGDQVTFIPGYRGLIKLAWQSGQLRHISARVVHEGDRFSYSYGLHPDLIHQPTRGDRGPITDVYAAATLIDGGVEFEVLDVATVETIRARSRAGRKGPWVTDWEAMARKTAIRQLAKWLPMATVMSRAIAAEGTVRTDLDADALDDLTADPGPEVLDADPAWDGPEPPGDQARNQEPTTQGDA
B4: SSAP_75: SEQ ID NO: 244 (protein)
chain: ANELGIFSVDNLNMTTIKQYLDGGGKASDAELVLLINLCKQNNMNPFMKEVYFIKYGNQPAQIVVSRDFYRKRAFQNPNFAGIEVGVIVLNKDGVLEHNEGTFKTHEQELVGAWARVHLKNTEIPVYVAVSYDEYVQMKDGHPNKMWTNKPCTMLGKVAESQALRMAFPAEFSGTYGEEELPEPEKEPREVNGVKEPDRAQIESFDKEDYAAKKIEELKEKAQPQKEVVKETGEVIDKITAEDF
B5: SSAP_287: SEQ ID NO: 456; Leifsonia xyli subsp. xyli str. CTCB07 (protein, listed as Leifsonia xyli)
chain: AVKKNPTIEDYLIKYEPEFQRALGASMDAAKFAQDALTAIKQNPKIGHSDPRSLFGALFLAAQLKLPVGGPLAQFHLTTRTVKGNLTVVPIVGYGGYVQLIMNTGLYSRVSAFLIHAGDYFVTGANSERGEFYDFRRADSDRGEVKGVIAYAKVKGHNESSWVYIDAETMRAKHRPKYWESTPWADDAGEMFKKTGIRVLQKYLPKSVESLNVALAASADQAIVRKVDGVPDLDIQHDRDTETVAVPEQPVSVPQPGDET
B6: SSAP_302: SEQ ID NO: 471; Clostridium saccharobutylicum (protein, listed as Clostridium saccharobutylicum)
chain: ATNSSLKNQLIEKEQTTVNVQETMFKNLINSDDVKSKFTEVLKDKAIQYINSIINLVNSDKDLIECEPKSIIDACMSAVSLDLSVDKNLEYVEIIPYKKKANFQLGYRGYIQLLLRTGEYKSVNIIEVYEGQLKSWNQLAEEFDIDFTYKKSDAVIGYAGYFEMLNGFRKSVYWSKENMDALRENSFKSDTRWNNDYKAMAKRAVIRNMISKWGSLSIEMEKAYCEDLNTDKFVNGN
B7: SSAP_143: SEQ ID NO: 312; Staphylococcus chromogenes (protein)
chain: ANAKEFKKQMNSKNEVAETNNAPQKAKGPRQQVSDLLDRMAPEIQKALPNNMSAERMARIAMTAVSSNPKLLECDPKSFIGALMQASQIGLEPNTALGQAYLIPYGNQVQLQLSYLGLIELATRTGQYKAIYAHEVYKDDEFSYEYGLYKNLIHKPVDDPNGEPIGYYAVYHLMNGGYDFAYWTRKKVEAHAQQYSKAVQQGWNSPWKSDFNAMAKKTVLKDLLKYAPKAIEVSQAIGSDSKVSEINDEGEIIDVTDYSQEEEK
modifications: Staphylococcus chromogenes
B8: SSAP_223: SEQ ID NO: 392; Haloactinospora alba (protein, listed as Haloactinospora alba)
chain: GQSVTNAVAQRDTSPSGMVGKYRDDFAQVMPSHVNGAGWVRIAQGILRRDAKLAEAARNAPQSLMSALMDAAQQGLTPGTTEFYLVPRKRKGSLEVQGITGYQGEIELIYRAGAVASVVAEIVHEHDTFEWIPGKHERPIHEADWFGNRGTMVGAYAYAVMNSGSTSKVVILNQHDIEKARAMSDGADSSYSPWQKWPESMWLKTAAHRLAKWVPTSAEYRHEQERARARSEDTEIPASPDSDVVHAEIVEENDDEQAT
B9: SSAP_93: SEQ ID NO: 262; Morganella morganii (protein, listed as Morganella morganii)
chain: SNPPIAQADLQKAQGTAVKEKTKDQQLIQFINQPGMKAQLAAALPRHITPDRMIRIVTTEIRKTPSLATCDMQSFIGAVVQCSQLGLEPGNALGHAYLLPFGNGKAASGQSNVQLIIGYRGMIDLARRSGQIISISARTVREGDSFHFEYGLNEDLTHVPGENDSGPITHVYAVARLKEGGVQFEVMSFSQIEKVRDSSKAGKNGPWVSHWEEMAKKTVIRRLFKYLPVSIEMQRAVILDEKAEANVDQEHASIFEGEYETVSPE
B10: SSAP_155: SEQ ID NO: 324; Staphylococcus nepalensis (protein, listed as Staphylococcus nepalensis)
chain: ATQNQFKNQLTQKKENNNQPQQKAVGPKQEISNLLDRMAPQIQKALPQHMSAERMARIAMTAVSSTPKLLECDPKSLIGALMQSSQIGLEPNTNLGQAYLIPYGKEVQLQVSYLGMIELANRSKQYKAIYAHEVYPEDYFEYQYGLQKDLIHKPADNPQSEPIGYYAVYHLLNGGYDFVYWSKAKIDDHARQFSKAVQKGWQSPWKTNFNAMAKKTVLKDLLKFAPKSIEMNNAVSSDSKAQQIDDDGNIIDVTDYSQVNDEPEQLQEGQ
B11: SSAP_162: SEQ ID NO: 331; Helcococcus sueciensis (protein, listed as Helcococcus sueciensis)
chain: AQAKELLENKTNNTVKKSEKQTMENLLTLMADEIKKALPENVKSERFRRIALTAFNGNKDLQQCEPTSFLAAMMQSAQLGLEPNTPLGQAYLIPYNNSKKNIKEVQFQVGYKGMLDLAHRTNQYKNIQANIVYEKDEFDIEYGLNPKLKHIPNMKEDRGQAIGYYAVYNLINGGQGFEYMTRAEVEKHAQKFSKTYRNGPWQTDFDEMAKKTVLKKVLKYAPMSTELQEATAIDERVVNEENIKSKNEDKFVDVDWSYVDDVEEDVIE
B12: SSAP_263: SEQ ID NO: 432; Gulosibacter molinativorax (protein)
chain: TDLTEKIATKAVAVKKDPKIADLMKSYEPQFARSLGKSMDAAKFGQDALTAIKQTPKLLEADQRSLFGAIFLAAQLKLPVGGPLAQFHLTPRKVAGEMTVVPIIGYNGYIQLAMNTGLYSKVGAFTVHANDHFRTGANSERGEFYDYERATGDRGELTGVIGYAKVKGFDESSFVYLDAATVRERHRPKFWDKTPWASDEGEMFRKTAIRVLQKYLPKSIEAAPLALAAQADQATVRRVDGVDDLQIDHEDIAIAEVIEDD
modifications: Gulosibacter molinativorax
B13: SSAP_296: SEQ ID NO: 465; Peptostreptococcaceae bacterium VA2 (protein)
chain: QPFLVQRYPHLDVVLNDQVHVLKSFFFQNHIILYLYKYIECLQIFHKPLLKGDRGKVIGYYAVYHLEPNGYNFVFMTYDEVKNHGKKYSKNFEGGIWEKEFDSMAKKTVIKKLLKYAPLSIEMQKAVTFDESVKGSIDNDMLLVESIEDVEEIQLDTNI
modifications: Peptostreptococcaceae bacterium VA2

Assays:
Type in all cases: cell-based
[1] = system: gene editing with Cas9; assay: Screen of 322 new SSAP proteins, gene editing activity with Cas9 (Table 5); set-up: Cas9 with SSAP activity: scale not given here
Outline: (§1)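 Synthetic SSAP candidates, identified computationally, were tested in editing screens using both Cas9 and dCas9.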

[2] = system: gene editing with dCas9; assay: Screen of 322 new SSAP proteins, gene editing activity with dCas9 (Table 5); set-up: dCas9 with SSAP activity: scale not given here
Outline: as §1

[3] = system: gene editing with Cas9 and dCas9; assay: Screen of 322 new SSAP proteins, activity across all experiments (Cas9 and dCas9, Table 5); set-up: scale not given here
Outline: as §1

Molecule	Cas9 with SSAP activity [1]	Cas9 with SSAP activity (normalized) [1]	dCas9 with SSAP activity [2]	dCas9 with SSAP activity (normalized) [2]	Activity across all experiments [3]
B1	−2.551	−0.452	−2.052	−0.337	−2.301
B2	−2.337	−0.343	−2.038	−0.267	−2.188
B3	−1.283	−0.722	−1.826	−2.544	−1.554
B4	0.284	0.225	−1.658	−0.897	−0.687
B5	0.085	0.091	−2.044	−1.493	−0.980
B6	−0.842	−0.289	−1.946	−0.772	−1.394
B7	−0.553	−1.314	−1.842	−1.900	−1.198
B8	0.236	0.173	−1.928	−0.948	−0.846
B9	0.714	1.299	−2.015	−0.557	−0.650
B10	−2.139	−0.908	−2.105	−0.826	−2.122
B11	0.273	0.278	−2.073	−1.380	−0.900
B12	−1.201	−0.666	−2.069	−0.685	−1.635
B13	0.244	0.617	−1.749	−0.598	−0.753

Reference: patent US20250034594A1, “RNA-GUIDED GENOME RECOMBINEERING AT KILOBASE SCALE” (THE BOARD OF TRUSTEES OF THE LELAND STANFORD JUNIOR …, priority 2021, published 2025)
